Publication PMC3558616 (Molecular microbiology, 2012)

Molecular target: the molecule itself
Test: SEC

B1: HvJAMM2 (Haloferax volcanii JAMM/MPN+ domain protein, HVO_1016), His6-tagged (natural protein, UniProt D4GVJ3 1-161, looked up)
chain: MRLFRSREVVGIAADALDFALEASAETHPNEYMGLLRGEEARRVGVDRDGYVVTDVLIIPGTVSDPYSATVRNDLVPNDFHAVGSIHSHPNGVLRPSDADLDTFGSGRVHIIIGSPYGPDDWEAFDQSGEVRDLDVLDADLSDPESFFDFTQDDIDAELDR
- stoichiometry N: 2
